According to patent publication US20150111814A1:

Target: HIV-1 BaL envelope protein spike (Env) on virions (HIV-1 BaL strain)
Test: cell-based or functional assay

Substance: DAVEI 8 (Dual Acting Virucidal Entry Inhibitor; cyanovirin-N-(Gly4Ser)8-His6-MPER fusion)
- IC50, p24 leakage from fully infectious HIV-1 BaL (ELISA): 395 nM

Substance: DAVEI 4 (Dual Acting Virucidal Entry Inhibitor; cyanovirin-N-(Gly4Ser)4-His6-MPER fusion)
- IC50, p24 leakage from fully infectious HIV-1 BaL (ELISA): 200 nM
